Numbered stars: 1 amine (or outer) side, 2 acyl side, 3 side chain; on linkers, the order of the positions; unused ones are H or OH. Bridge positions count the residues as written; N and C are the ends. Square brackets hold non-standard residues; d marks the D form. Peptide text beside a SMILES is read from it. I, II: the chains in the order shown. * marks the point of attachment. Hexanoyl(6-succinimido-3yl) = O=C1CC([*:1])C(=O)N1CCCCCC(=O)[*:2]; Pteroyl = Nc1nc2ncc(CNc3ccc(C(=O)*)cc3)nc2c(=O)[nH]1; Dolaproine = CO[C@@H]([C@@H]1CCCN1)[C@@H](C)C(=O)O; Dil = CC[C@H](C)[C@H](NC)[C@@H](CC(=O)O)OC; γGlu = O=C(O)[C@H](CCC(=O)[*:2])N[*:1]; PABC = O=C(OCc1ccc(N[*:1])cc1)[*:2]; X1 = C[C@@H](N*)[C@@H](O)c1ccccc1; Cit = NC(=O)NCCC[C@H](N)C(=O)O; NMeV = CN[C@H](C(=O)O)C(C)C
Key:
[1] = system: human nasopharyngeal cancer cell line KB; test: Cytotoxicity test of conjugate LDC10BR; assay type: cell-based; conditions: incubated 15-30 min, then 2-3 days
Method: (§1) Culture medium: RPMI 1640 Medium, no folic acid
(§2) 1) human nasopharyngeal cancer cell line KB, melanoma cell line A375, and human lung cancer cell H460 were incubated at 37° C., 5% CO2 in RPMI 1640 medium containing 10% fetal bovine serum, the cells were passaged every 2-3 days.
(§3) 2) human nasopharyngeal cancer cell line KB, melanoma cell line A375, and human lung cancer cell H460 were plated at 1×10^3 cells per well (96-well plate) and incubated for 8-12 h at 37° C., 5% CO2.
(§4) 3) Stock solutions of LDC conjugates or control were prepared in PBS solution. 100 μL/well of serially diluted LDC conjugates or control was added to the cells in the plate and incubated for 15-30 min at 37° C., 5% CO2. The culture medium in the wells was then removed by aspiration and the cells were incubated in fresh culture medium without conjugates (150 μL/well) for 2-3 days at 37° C., 5% CO2.
(§5) 4) CellTiter 96® Aqueous One Solution Cell Proliferation Assay (Promega) was added to each well to measure the amount of […] cells, and the plate was incubated in an incubator for 1 h at 37° C., 5% CO2.
(§6) 5) the plate was read at 490 nm on a microplate reader, and the cell survivals were compared for cells with or without the treatment of LDC conjugates. The LDC drug concentrations that are required for 50% cell death (IC50 values) were determined.

melanoma cell line A375 [2] = test: Cytotoxicity test of conjugate LDC10BR; assay type: cell-based; conditions: A375, incubated 15-30 min, then 2-3 days
Method: as §1, §2, §3, §4, §5, §6

[3] = system: human lung cancer cell H460; test: Cytotoxicity test of conjugate LDC10BR; assay type: cell-based; conditions: H460, incubated 15-30 min, then 2-3 days
Method: as §1, §2, §3, §4, §5, §6

[4] = system: chronic myeloid leukemia cell line K562; test: Cytotoxicity test of conjugate LDC10B; assay type: cell-based; conditions: K562, Incubation Time 30 min
Method: as §1
(§7) 1) human nasopharyngeal cancer cell line KB, melanoma cell line A375, human lung cancer cell H1299, chronic myeloid leukemia cell line K562, human lung cancer cell H460, ovarian cancer cell SKOV3, breast cancer cell line HCC1954, human gastric cancer cell N87, and human breast cancer cell SK-BR-3 were incubated at 37° C., 5% CO2 in RPMI 1640 medium containing 10% fetal bovine serum, the cells were passaged every 2-3 days.
(§8) 2) human nasopharyngeal cancer cell line KB, melanoma cell line A375, human lung cancer cell H1299, chronic myeloid leukemia cell line K562, human lung cancer cell H460, ovarian cancer cell SKOV3, breast cancer cell line HCC1954, human gastric cancer cell N87, and human breast cancer cell SK-BR-3 were plated at 1×10^3 cells per well (96-well plate) and incubated for 8-12 h at 37° C., 5% CO2.
(§9) 3) Stock solutions of LDC conjugates or controls were prepared in PBS solution. 100 μL/well of serially diluted LDC conjugates or controls was added to the test cells in the plates and incubated for 15-30 min at 37° C., 5% CO2. The culture medium in the wells was then removed by aspiration and the test cells were incubated in fresh culture medium without conjugates (150 μL/well) for 2-3 days at 37° C., 5% CO2.
(§10) 4) CellTiter 96® Aqueous One Solution Cell Proliferation Assay (Promega) was added to each well to measure the amount of […] cells, and each plate was incubated in an incubator for 1 h at 37° C., 5% CO2.
(§11) 5) Each plate was read at 490 nm on a microplate reader, and the cell survivals were compared for test cells with or without the treatment of LDC conjugates. The LDC drug concentrations that are required for 50% cell death (IC50 values) were determined.

[5] = system: human nasopharyngeal cancer cell line KB; test: Cytotoxicity test of conjugate LDC10B; assay type: cell-based; conditions: Incubation Time 15 min
Method: as §1, §7, §8, §9, §10, §11

[6] = system: human lung cancer cell H1299; test: Cytotoxicity test of conjugate LDC10B; assay type: cell-based; conditions: H1299, Incubation Time 30 min
Method: as §1, §7, §8, §9, §10, §11

melanoma cell line A375 [7] = test: Cytotoxicity test of conjugate LDC10B; assay type: cell-based; conditions: A375, Incubation Time 15 min
Method: as §1, §7, §8, §9, §10, §11

[8] = system: human breast cancer cell SK-BR-3; test: Cytotoxicity test of conjugate LDC10B; assay type: cell-based; conditions: SK-BR-3, Incubation Time 30 min
Method: as §1, §7, §8, §9, §10, §11

[9] = system: human lung cancer cell H460; test: Cytotoxicity test of conjugate LDC10B; assay type: cell-based; conditions: H460, Incubation Time 30 min
Method: as §1, §7, §8, §9, §10, §11

[10] = system: human gastric cancer cell N87; test: Cytotoxicity test of conjugate LDC10B; assay type: cell-based; conditions: N87, Incubation Time 30 min
Method: as §1, §7, §8, §9, §10, §11

[11] = system: ovarian cancer cell SKOV3; test: Cytotoxicity test of conjugate LDC10B; assay type: cell-based, human; conditions: SKOV3, Incubation Time 30 min
Method: as §1, §7, §8, §9, §10, §11

[12] = system: breast cancer cell line HCC1954; test: Cytotoxicity test of conjugate LDC10B; assay type: cell-based, human; conditions: HCC1954, Incubation Time 30 min
Method: as §1, §7, §8, §9, §10, §11

[13] = Detection of conjugate concentrations in xenograf tumor models (serum, anti-MMAE ELISA); assay type: in vivo, nude mice; conditions: 10 mg/kg, peritoneal injection
Method: (§12) Animal: nude mice, aged 6-8 weeks, female
1) Human ovarian cancer cell SKOV3 and breast cancer cell line HCC1954 were incubated at 37° C., 5% CO2 in IMDM medium containing 10% fetal bovine serum, the cells were passaged every 2-3 days.
2) generation of tumors: 7×10^6 tumor cells were injected subcutaneously into the back of nude mice, and the mice were grouped for treatment after the tumor sizes were as large as about 100˜200 mm^3.
3) treatment: 3 mice/group, 10 mg/kg, peritoneal injection.
4) blood collection: the time for blood collection before treatment was set as 0, blood was collected at 20 min, 2 h, 4 h, and 24 h after treatment. The blood was centrifuged to collect serum, which was frozen and preserved.
5) Detection: the total amount of MMAE, LDC10B, LDC10H, as well as the MMAE metabolites of LDC10B and LDC10H in serum were detected by mice anti-MMAE ELISA kit.

[14] = system: Transplanted HCC1954 tumor; test: Inhibitory assay of conjugates LDC10B and LDC10H against xenograf tumors; assay type: in vivo, nude mice; conditions: 10 mg/kg
Method: as §12
(§13) 1) human large cell lung cancer cell H460, human lung cancer cell A549, ovarian cancer cell SKOV3, and breast cancer cell line HCC1954 were incubated at 37° C., 5% CO2 in IMDM medium containing 10% fetal bovine serum, the cells were passaged every 2-3 days.
(§14) 2) generation of tumors: 7×10^6 tumor cells were injected subcutaneously into the back of nude mice, and the mice were grouped for treatment after the tumor sizes were as large as about 100-200 mm^3.
(§15) 3) treatment: 3 mice/group, treated with LDC10B, LDC10H, as well as controls MMAE and PBS with doses of 5 and 10 mg/kg every 5 days, three injections.
(§16) 4) the physical performance, body weights and tumor sizes of the animals were monitored. The number of animal death was recorded during the experiment.

Transplanted H460 tumor = test: as above; assay type: in vivo, nude mice
Method: as §12, §13, §14, §15, §16

Transplanted SKOV3 tumor = test: as above; assay type: in vivo, nude mice; conditions: 10 mg/kg
Method: as §12, §13, §14, §15, §16

Structure (SMILES): CC[C@H](C)[C@@H]([C@@H](CC(=O)N1CCC[C@H]1[C@H](OC)[C@@H](C)C(=O)N[C@H](C)[C@@H](O)c1ccccc1)OC)N(C)C(=O)[C@@H](NC(=O)[C@H](C(C)C)N(C)C(=O)OCc1ccc(NC(=O)[C@H](CCCNC(N)=O)NC(=O)[C@@H](NC(=O)CCCCCN2C(=O)CC(SC[C@H](NC(=O)CC[C@H](NC(=O)c3ccc(NCc4cnc5[nH]c(N)nc(=O)c5n4)cc3)C(=O)O)C(=O)N[C@@H](CCCCN)C(=O)N[C@@H](CCC(=O)O)C(=O)N[C@@H](Cc3ccccc3)C(=O)N[C@@H](CC(C)C)C(=O)N[C@@H](Cc3c[nH]cn3)C(=O)N3CCC[C@H]3C(=O)N[C@@H](CO)C(=O)N[C@@H](CCCCN)C(=O)N[C@H](C(=O)N[C@@H](CC(=O)O)C(=O)N[C@@H](CC(C)C)C(=O)N3CCC[C@H]3C(=O)N[C@@H](CCCNC(=N)N)C(=O)O)C(C)C)C2=O)C(C)C)cc1)C(C)C (stereo partly shown) [LDC10B] (I: {Pteroyl-γGlu}-CKEFLHPSKVDLPR-OH / II: V[Cit][PABC][NMeV]V[Dil][Dolaproine]-X1; linker I:1-II:N via Hexanoyl(6-succinimido-3yl))
- IC50 [1]: 2200 nM
- IC50 (melanoma cell line A375 [2]): 51300 nM
- IC50 [3]: 6800 nM
- IC50 [4]: 14.8 nM
- IC50 [5]: 760 nM
- IC50 [6]: 58.8 nM
- IC50 (melanoma cell line A375 [7]): 10000 nM
- IC50 [8]: 15.9 nM
- IC50 [9]: 50.4 nM
- IC50 [10]: 75.1 nM
- IC50 [11]: 15.7 nM
- IC50 [12]: 14.1 nM
- Concentration in serum ([13]; 20 min): 10800 ng/mL
- Concentration in serum ([13]; 2 h): 5035 ng/mL
- Concentration in serum ([13]; 4 h): 530 ng/mL
- Concentration in serum ([13]; 24 h): 117.9 ng/mL
- detected in serum at 24 h after treatment (in words) ([13]; 24 h): Trace amount
- Concentration in serum ([13]; Before Treatment): 0 ng/mL
- Body weight of mice ([14]; Before Injection): 21.85 g
- Body weight of mice ([14]; Five days after Injection 1): 22.2 g
- Body weight of mice ([14]; Five days after Injection 2): 22.55 g
- Body weight of mice ([14]; Five days after Injection 3): 22.38 g
- Body weight of mice (Transplanted H460 tumor; 5 mg/kg, Before Injection): 23.13 g
- Body weight of mice (Transplanted H460 tumor; 5 mg/kg, Five days after Injection 1): 22.53 g
- Body weight of mice (Transplanted H460 tumor; 5 mg/kg, Five days after Injection 2): 22.26 g
- Body weight of mice (Transplanted H460 tumor; 5 mg/kg, Five days after Injection 3): 21.65 g
- Body weight of mice (Transplanted H460 tumor; 10 mg/kg, Before Injection): 22.51 g
- Body weight of mice (Transplanted H460 tumor; 10 mg/kg, Five days after Injection 1): 22.53 g
- Body weight of mice (Transplanted H460 tumor; 10 mg/kg, Five days after Injection 2): 23.37 g
- Body weight of mice (Transplanted H460 tumor; 10 mg/kg, Five days after Injection 3): 23 g
- Body weight of mice (Transplanted SKOV3 tumor; Before Injection): 22.96 g
- Body weight of mice (Transplanted SKOV3 tumor; Five days after Injection 1): 22.44 g
- Body weight of mice (Transplanted SKOV3 tumor; Five days after Injection 2): 23.23 g
- Body weight of mice (Transplanted SKOV3 tumor; Five days after Injection 3): 23.53 g

Source: US11571480B2, “Multi-ligand drug conjugates and uses thereof” (priority 2015, dated 2023)
